This note sets out measurements from US20160108115 (published 2016).

The target of data set [1] is T1, FcγRI (human, UniProt P12314).
T1 chain: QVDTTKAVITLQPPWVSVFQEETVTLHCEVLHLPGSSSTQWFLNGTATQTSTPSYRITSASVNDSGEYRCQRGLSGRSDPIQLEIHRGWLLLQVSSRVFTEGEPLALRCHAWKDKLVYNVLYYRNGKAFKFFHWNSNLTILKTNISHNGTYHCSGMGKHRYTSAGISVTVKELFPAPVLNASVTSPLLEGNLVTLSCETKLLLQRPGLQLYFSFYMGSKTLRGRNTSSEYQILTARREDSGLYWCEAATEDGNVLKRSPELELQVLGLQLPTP
Briefly: ELISA, immune complexes.

For a further data set, the target named is T2, FcγRIIa (human, UniProt P12318).
T2 chain: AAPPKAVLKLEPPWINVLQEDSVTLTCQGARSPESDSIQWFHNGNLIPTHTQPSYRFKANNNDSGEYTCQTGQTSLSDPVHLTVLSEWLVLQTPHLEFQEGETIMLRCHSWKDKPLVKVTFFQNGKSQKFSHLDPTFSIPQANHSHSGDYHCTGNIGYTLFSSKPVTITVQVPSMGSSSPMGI
In words: SPR, pH 7.4. On the technique in general: In SPR one partner is held on a chip, and binding of the other changes the refractive index at the surface.

The target of data set [2] is T1, FcγRI. In words: SPR, pH 7.4.
In data set [3] the target is T3, FcγRIIIa (human, UniProt P08637). In words: ELISA, immune complexes. A general note: In an ELISA, binding on a coated surface is turned into a signal by an enzyme label.
T3 sequence (P08637 17-208): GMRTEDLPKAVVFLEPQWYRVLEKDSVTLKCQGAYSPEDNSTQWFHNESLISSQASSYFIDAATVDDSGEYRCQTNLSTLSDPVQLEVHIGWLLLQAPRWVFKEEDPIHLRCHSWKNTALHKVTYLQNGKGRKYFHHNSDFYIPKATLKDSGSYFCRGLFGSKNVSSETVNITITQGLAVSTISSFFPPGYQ
For another data set, the target named is T4, FcγRIIb/c (human, UniProt P31994).
T4 chain: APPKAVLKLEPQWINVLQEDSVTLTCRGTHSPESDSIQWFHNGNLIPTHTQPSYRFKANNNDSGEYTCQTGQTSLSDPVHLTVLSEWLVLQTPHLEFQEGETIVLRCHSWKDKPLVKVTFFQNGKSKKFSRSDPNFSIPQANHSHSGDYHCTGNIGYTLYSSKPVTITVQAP
Briefly: SPR, pH 7.4.

Data set [4] deals with the molecule itself. Briefly: SPR, pH 7.4, self-association, engineering batch.
For data set [5], the target named is T3, FcγRIIIa. In words: SPR, pH 7.4.
In data set [6] the target is T5, FcγRIIIb (human, UniProt O75015).
T5 chain: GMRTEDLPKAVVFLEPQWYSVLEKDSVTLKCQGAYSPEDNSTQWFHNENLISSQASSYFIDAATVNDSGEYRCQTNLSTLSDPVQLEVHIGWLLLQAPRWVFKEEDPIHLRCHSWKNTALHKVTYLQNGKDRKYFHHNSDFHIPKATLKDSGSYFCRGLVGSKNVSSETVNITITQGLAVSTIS
In words: ELISA, immune complexes.

The target in data set [7] is T5, FcγRIIIb. In words: SPR, pH 7.4.
Data set [8] deals with the molecule itself. Briefly: SPR, pH 7.4, self-association, GMP batch.

B1: BNJ441 (full length) (antibody)
chain 1: QVQLVQSGAEVKKPGASVKVSCKASGHIFSNYWIQWVRQAPGQGLEWMGEILPGSGHTEYTENFKDRVTMTRDTSTSTVYMELSSLRSEDTAVYYCARYFFGSSPNWYFDVWGQGTLVTVSSASTKGPSVFPLAPCSRSTSESTAALGCLVKDYFPEPVTVSWNSGALTSGVHTFPAVLQSSGLYSLSSVVTVPSSNFGTQTYTCNVDHKPSNTKVDKTVERKCCVECPPCPAPPVAGPSVFLFPPKPKDTLMISRTPEVTCVVVDVSQEDPEVQFNWYVDGVEVHNAKTKPREEQFNSTYRVVSVLTVLHQDWLNGKEYKCKVSNKGLPSSIEKTISKAKGQPREPQVYTLPPSQEEMTKNQVSLTCLVKGFYPSDIAVEWESNGQPENNYKTTPPVLDSDGSFFLYSRLTVDKSRWQEGNVFSCSVLHEALHSHYTQKSLSLSLGK
chain 2: DIQMTQSPSSLSASVGDRVTITCGASENIYGALNWYQQKPGKAPKLLIYGATNLADGVPSRFSGSGSGTDFTLTISSLQPEDFATYYCQNVLNTPLTFGQGTKVEIKRTVAAPSVFIFPPSDEQLKSGTASVVCLLNNFYPREAKVQWKVDNALQSGNSQESVTEQDSKDSTYSLSSTLTLSKADYEKHKVYACEVTHQGLSSPVTKSFNRGEC
B1: the binding result with FcγRI [1], with FcγRIIIa [3] and with FcγRIIIb [6] was “no binding” in each case. Moreover, the dissociation constant (Kd) (as a rule, the constant that tells how readily two partners part at equilibrium) in the data set with FcγRIIa is 2.31 µM; with FcγRI [2], 3.75 µM; with FcγRIIb/c, 8.09 µM; in [4] it was 7100 µM; with FcγRIIIa [5], 7.23 µM; in the data set with FcγRIIIb [7] it was 3.33 µM. The same molecule had a Kd in data set [8] of 270 µM.
